{
  "source": "paper PMC7949115",
  "about": "“Poly(ADP-ribose) polymerase 1 regulates mitochondrial DNA repair in an NAD-dependent manner”",
  "key": {"[1]": {"biological_target": "T1, PARP1 (PARP-1);Pol gamma A (catalytic subunit);Pol gamma B deltaI4 (accessory subunit) (Homo sapiens?;Homo sapiens?;Homo sapiens?) (UniProt P09874+P54098+Q9UHN1)", "T1 sequence (P09874 whole entry, stated change not applied, chain 1 of 3)": "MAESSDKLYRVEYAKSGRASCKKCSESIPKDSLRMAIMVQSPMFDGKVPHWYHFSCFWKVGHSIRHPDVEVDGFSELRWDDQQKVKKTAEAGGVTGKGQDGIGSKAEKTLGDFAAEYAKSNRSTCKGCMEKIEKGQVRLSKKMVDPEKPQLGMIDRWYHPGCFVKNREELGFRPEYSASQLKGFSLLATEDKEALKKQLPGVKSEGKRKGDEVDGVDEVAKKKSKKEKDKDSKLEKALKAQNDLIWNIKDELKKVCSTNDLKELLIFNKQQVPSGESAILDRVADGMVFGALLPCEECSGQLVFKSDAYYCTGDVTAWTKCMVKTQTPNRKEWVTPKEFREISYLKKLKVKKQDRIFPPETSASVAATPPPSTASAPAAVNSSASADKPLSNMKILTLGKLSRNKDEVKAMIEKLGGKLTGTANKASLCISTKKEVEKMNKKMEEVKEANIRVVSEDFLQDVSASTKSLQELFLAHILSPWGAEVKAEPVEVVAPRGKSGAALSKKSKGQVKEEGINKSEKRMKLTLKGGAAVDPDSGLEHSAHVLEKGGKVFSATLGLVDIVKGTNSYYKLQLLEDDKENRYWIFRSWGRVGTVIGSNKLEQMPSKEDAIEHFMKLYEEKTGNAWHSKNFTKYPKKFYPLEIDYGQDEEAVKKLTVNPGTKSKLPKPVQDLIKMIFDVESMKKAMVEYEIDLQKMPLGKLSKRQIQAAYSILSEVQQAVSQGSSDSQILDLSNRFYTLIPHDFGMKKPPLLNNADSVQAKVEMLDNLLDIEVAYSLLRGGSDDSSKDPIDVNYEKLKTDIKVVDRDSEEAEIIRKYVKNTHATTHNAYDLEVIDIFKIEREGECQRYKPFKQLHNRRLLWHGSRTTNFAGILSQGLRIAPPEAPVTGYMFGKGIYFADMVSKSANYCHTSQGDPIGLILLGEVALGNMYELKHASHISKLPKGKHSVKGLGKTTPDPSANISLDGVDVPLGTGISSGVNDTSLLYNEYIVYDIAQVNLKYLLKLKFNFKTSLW", "T1 sequence (P54098 30-1239, stated change not applied, chain 2 of 3)": "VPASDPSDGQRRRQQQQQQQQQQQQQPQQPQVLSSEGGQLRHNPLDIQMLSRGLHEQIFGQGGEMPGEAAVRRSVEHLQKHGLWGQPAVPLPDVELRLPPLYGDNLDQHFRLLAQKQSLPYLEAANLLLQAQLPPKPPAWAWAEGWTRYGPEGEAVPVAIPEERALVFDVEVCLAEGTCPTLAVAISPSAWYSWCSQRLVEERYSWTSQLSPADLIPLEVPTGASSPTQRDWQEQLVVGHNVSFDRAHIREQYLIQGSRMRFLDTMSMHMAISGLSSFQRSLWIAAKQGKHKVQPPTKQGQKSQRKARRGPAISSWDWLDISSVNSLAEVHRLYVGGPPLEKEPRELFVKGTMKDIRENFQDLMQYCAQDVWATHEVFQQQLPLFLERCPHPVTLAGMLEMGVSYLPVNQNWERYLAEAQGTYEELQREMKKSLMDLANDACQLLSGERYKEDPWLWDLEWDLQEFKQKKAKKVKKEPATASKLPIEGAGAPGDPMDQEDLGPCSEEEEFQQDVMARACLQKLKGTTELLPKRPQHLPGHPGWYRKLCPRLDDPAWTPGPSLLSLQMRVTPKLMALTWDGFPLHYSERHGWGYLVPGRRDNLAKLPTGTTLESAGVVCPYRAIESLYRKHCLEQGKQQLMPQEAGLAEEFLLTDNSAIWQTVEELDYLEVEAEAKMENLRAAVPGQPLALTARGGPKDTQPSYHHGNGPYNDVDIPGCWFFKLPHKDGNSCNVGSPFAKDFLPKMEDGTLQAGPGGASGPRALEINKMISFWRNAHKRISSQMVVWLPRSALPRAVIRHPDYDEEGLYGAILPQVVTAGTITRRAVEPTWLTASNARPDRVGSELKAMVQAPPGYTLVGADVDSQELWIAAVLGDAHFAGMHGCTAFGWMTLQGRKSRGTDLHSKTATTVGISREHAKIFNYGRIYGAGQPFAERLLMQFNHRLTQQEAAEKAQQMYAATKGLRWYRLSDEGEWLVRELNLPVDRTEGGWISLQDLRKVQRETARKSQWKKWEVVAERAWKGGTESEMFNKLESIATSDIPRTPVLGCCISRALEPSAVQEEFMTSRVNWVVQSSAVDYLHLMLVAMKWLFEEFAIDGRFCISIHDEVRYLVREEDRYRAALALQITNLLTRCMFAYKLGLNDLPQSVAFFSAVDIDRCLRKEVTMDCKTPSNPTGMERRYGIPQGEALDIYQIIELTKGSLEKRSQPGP", "T1 sequence (Q9UHN1 whole entry, stated change not applied, chain 3 of 3)": "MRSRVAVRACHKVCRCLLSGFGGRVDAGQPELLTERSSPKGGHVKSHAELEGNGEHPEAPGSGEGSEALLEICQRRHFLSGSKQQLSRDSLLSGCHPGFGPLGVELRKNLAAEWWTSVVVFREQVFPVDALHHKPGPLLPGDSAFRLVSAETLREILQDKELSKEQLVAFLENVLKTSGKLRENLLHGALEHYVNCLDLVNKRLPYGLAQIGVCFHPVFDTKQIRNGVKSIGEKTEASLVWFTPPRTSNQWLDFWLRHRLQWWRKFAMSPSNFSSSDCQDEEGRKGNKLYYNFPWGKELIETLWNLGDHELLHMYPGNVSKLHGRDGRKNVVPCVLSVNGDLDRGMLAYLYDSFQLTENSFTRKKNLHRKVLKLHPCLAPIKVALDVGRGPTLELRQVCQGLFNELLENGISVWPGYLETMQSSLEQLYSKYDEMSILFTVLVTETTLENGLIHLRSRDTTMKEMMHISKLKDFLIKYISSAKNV", "assay": "ITC", "conditions": "Buffer RX: 25 mM Hepes pH 7.5, 140 mM KCl, 5 mM MgCl2, 5% glycerol, 1 mM BME; ITC at 25 C; EMSA incubated on ice then room temperature, 4-20% native PAGE in …"}, "[2]": {"biological_target": "T1, PARP1 (PARP-1);Pol gamma A (catalytic subunit);Pol gamma B deltaI4 (accessory subunit) (Homo sapiens?;Homo sapiens?;Homo sapiens?)", "assay": "EMSA", "conditions": "apparent; PARP1 titrated into Pol gamma (0.5 uM)-DNA (0.75 uM); no NAD+; Buffer RX: 25 mM Hepes pH 7.5, 140 mM KCl, 5 mM MgCl2, 5% glycerol, 1 mM BME; ITC at 25 C; EMSA incubated on ice then room temperature, 4-20% native PAGE in …"}, "[3]": {"biological_target": "mitochondrial DNA polymerase (Pol γ) holoenzyme, heterotrimer of Pol γA and dimeric Pol γB ΔI4 (UniProt P54098)", "assay": "ITC; PARP-1 titrated into Pol γ (5 μM) to a final 10 μM, without DNA; 25 °C; Buffer RX (25 mM Hepes pH 7.5, 140 mM KCl, 5 mM MgCl2, 5% glycerol, 1 mM BME)"}, "PARP1 (PARP-1)": {"biological_target": "PARP1 (PARP-1) (UniProt P09874 1-1014)", "sequence (P09874 whole entry)": "as the sequence (P09874 whole entry, stated change not applied, chain 1 of 3) above", "assay": "ITC; 25 C, 5 mM Mg2+, no NAD+; dH -58.4 kcal/mol; Buffer RX: 25 mM Hepes pH 7.5, 140 mM KCl, 5 mM MgCl2, 5% glycerol, 1 mM BME; ITC at 25 C; EMSA incubated on ice then room temperature, 4-20% native PAGE in Tris-glycine at 0 C", "conditions": "protein: recombinant; tags: His (Ni-NTA purified); self-annealed dumbbell, two hairpins, 3-nt gap"}},
  "data": [
    {"molecule": "CTTTTCTGGTGAAAAGCTCGTCGGCAGCGCTTGAGCAGCGGCAGCTGGTGCTGCCGCTGCTCAAGCGCTGCCGAC [d3ntgap (75-nt dumbbell with 3-nt gap)]", "values": [
      {"measurement": "Kd", "setting": "[1]", "result": 0.111, "unit": "µM"},
      {"measurement": "Kd", "setting": "[2]", "result": 0.6, "unit": "µM"}
    ]},
    {"molecule": "Poly(ADP-ribose) polymerase 1 (from UniProt P09874 1-1014) (enzyme)", "values": [
      {"measurement": "Kd", "setting": "[3]", "result": "> 10", "unit": "µM"}
    ]},
    {"molecule": "d3ntgap (75-nt dumbbell with 3-nt gap) (structured_DNA) DNA: CTTTTCTGGTGAAAAGCTCGTCGGCAGCGCTTGAGCAGCGGCAGCTGGTGCTGCCGCTGCTCAAGCGCTGCCGAC", "values": [
      {"measurement": "Kd", "setting": "PARP1 (PARP-1)", "result": 0.0364, "unit": "µM"}
    ]}
  ]
}
